The values that follow come from US10487307B2, “Culture method for pluripotent stem cells” (FUJIFILM CORPORATION, priority 2013, dated 2019).

One data set has as its system human iPS cells ("Tic"). The data set is described as follows: Cell growth property evaluation 1 (different media). It is filed as cell-based. The following applies: for cell growth properties with Essential 8 or NutriStem not containing 2-mercaptoethanol versus media containing it: Table 11; for Cell growth rate: polypeptide 100 μg/ml, 72 hours, RCP-11 with Essential 8 = 100%, n=3. As for the experimental part:
Furthermore, for evaluation, human iPS cells (“Tic”) that were retention-cultured as described in <Cell adhesiveness evaluation 1> of reference example were treated with TrypLE Select (Invitrogen) for 5 minutes at 37° C. and separated into a single cell. After being subjected to centrifugation for 2 minutes at 300 rpm, the cells were collected, suspended in each medium, and used for the evaluation in each example. Herein, Y-27362 ((R)-(+)-trans-N-(4-pyridyl)-4-(1-aminoethyl)-cyclohexane carboxamide.2HCl.H2O, an Rho binding kinase inhibitor, Wako Pure Chemical Industries, Ltd.) was added to all of the media at a final concentration of 10 μM.
Each of RCP-11, RCP-5, and recombinant laminin (Human Recombinant Laminin-511: BIOLAMINA AB) as control was added to and suspended in a predetermined buffer (a dialysis buffer used in <GRAVY value and aggregation characteristics> of reference examples for RCP-11 and RCP-5, and PBS for the recombinant laminin) at the final concentration shown in Table 11, thereby preparing polypeptide solutions. The polypeptide solutions were added to the respective wells of a plasma-treated 96-well plate made of polystyrene (BD Falcon) having a plasma-treated cell culture surface and held as they were so as to be adsorbed onto the plate for 2 hours at 37° C. In this way, a peptide-treated 96-well plate having a polypeptide-coated surface was obtained. The iPS cells suspended in the respective media shown in Table 11 were seeded into the respective wells of the obtained peptide-treated 96-well plate at a cell density of 10,000 cells/well. After the cells were cultured for 72 hours, nonadhesive cells were washed off with PBS, and only adhesive cells were immobilized using 4% by mass of paraformaldehyde (Wako Pure Chemical Industries, Ltd.). By using an Attophos (registered trademark) AP Fluorescent Substrate System (Promega Corporation), the ALP activity was calculated, and from the calibration curve, the number of undifferentiated iPS cells having the ALP activity was calculated. In Table 11, the cell adhesion rate is expressed as a ratio calculated by regarding the number of pluripotent stem cells after the culture for 72 hours in a combination of RCP-11 and Essential 8 as being 100%. n=3.
In Table 11, “% by mass” in the concentration of 2-meracptoethanol is a proportion (w/v %) of mass (g) of 2-meracptoethanol per 100 mL of the total volume of the medium at the time of culture.

Data set [1] in a line: Evaluation 1 about amount of residual polypeptide adsorbed (ELISA, media). It is filed as physicochemical. Particulars: for Residual rate of polypeptide (%): four days after the starting of culture, amount adsorbed immediately after start = 100, coated at 100 μg/ml; for residual rate of adsorbed polypeptide, medium not containing versus containing 2-mercaptoethanol: FIGS. 5 and 6 and Table 13. The protocol: RCP-11 and RCP-5 were prepared by using a predetermined buffer (the dialysis buffer used in <GRAVY value and aggregation characteristics> of reference examples) such that their concentration became 100 μg/ml. The polypeptides were added to the respective wells of a plasma-treated 96-well plate made of polystyrene having a plasma-treated cell culture surface and held as they were for 2 hours at 37° C. so as to be adsorbed onto the plate, thereby obtaining a polypeptide-coated surface. After the wells were washed with PBS, the respective media were added thereto, followed by incubation at 37° C. for a predetermined time. The wells were washed with PBS, and then 20% by mass of an immunoblocking solution (DS Pharma Biomedical Co., Ltd.) was added thereto, followed by incubation for 30 minutes at 37° C., thereby performing a blocking treatment. After the wells were washed with PBS-T (PBS containing 0.05% by mass of Tween-20), 5% by mass of an immunoblocking solution (DS Pharma Biomedical Co., Ltd.) containing an anti-human vitronectin antibody (Thermo Fisher Scientific Inc.) was added thereto, followed by incubation for 2 hours at room temperature. After the wells were washed with PBS-T, a 5% by mass of immunoblocking solution (DS Pharma Biomedical Co., Ltd.) containing an HRP-labeled anti-IgG antibody (Thermo Fisher Scientific Inc.) was added thereto, followed by incubation for 1 hour at room temperature. After the wells were washed with PBS-T, a TMB Substrate (Wako Pure Chemical Industries, Ltd.) was added thereto for developing color, and then 1 N hydrochloric acid was added thereto to stop the color reaction. By using a plate reader, the absorbance was measured, and the amount of the residual RCP-11 and RCP-5 was determined (absorption wavelength: 450 nm, control wavelength: 650 nm).
In Table 13, the residual rate of RCP-11 and RCP-5 is expressed as a ratio (%) calculated by regarding the amount of the polypeptides adsorbed immediately after the starting of culture as being 100.
A general note: An ELISA detects its analyte on a solid surface through an enzyme-linked reagent.

The next data set deals with iPS cells. Put plainly: Example 6: evaluation of undifferentiated state maintainability (10 passages). Format: cell-based, human. Particulars: for shape of iPS cells after 10 passages: Essential 8 and NutriStem not containing 2-mercaptoethanol, FIGS. 8A to 8D. The protocol: iPS cells were seeded onto cell culture surfaces coated with RCP-11 and RCP-5 and cultured in Essential 8. Every five to seven days after seeding, cell culture surfaces coated with RCP-11 and RCP-5 were newly prepared. The iPS cells were treated with TryPLE Select, separated into a single cell, and then collected. Thereafter, the iPS cells were subcultured by being seeded onto the newly prepared cell culture surfaces coated with RCP-11 and RCP-5. Under the conditions described above, the cells were cultured for 10 passages.
The iPS cells cultured for 10 passages on the RCP-11-coated surface were immobilized using 4 v/v % paraformaldehyde, and the membrane permeability was enhanced by using 1% by mass of Triton-X/PBS. After the cells were subjected to a blocking treatment using an Image IT Signal Enhancer (Invitrogen), an anti-NANOG antibody (AF 1997, R&D Systems, Inc.), an anti-OCT 3/4 antibody, an anti-SSEA-3 antibody, an anti-S SEA-4 antibody, a anti-Tra-1-60 antibody, and an anti-Tra-1-81 antibody (Stemcell Technologies Inc), an Alexa Fluor 555 binding rabbit anti-goat IgG antibody (Invitrogen), an FITC binding goat anti-mouse IgM antibody (Stemcell Technologies Inc), and DAPI (Dojindo Molecular Technologies, Inc.) were added thereto for labeling, and the cells were imaged using a fluorescence microscope.
In FIGS. 8A to 8D, the images on the left side are full images of the colony, and the images on the right side are magnified images. The scale bar in FIGS. 8A to 8D indicates 500 μm.
In FIGS. 9A to 9F, each of the images of stained cells is an image of stained iPS cells cultured on the RCP-11-coated surface by using Essential 8. The images on the left side are images of the cells stained with DAPI, and the images on the right side are images of the cells stained with NANOG (FIG. 9A), OCT 3/4 (FIG. 9B), SSEA-3 (FIG. 9C), SSEA-4 (FIG. 9D), Tra-1-60 (FIG. 9E), and Tra-1-81 (FIG. 9F). The scale bar in FIGS. 9A to 9F indicates […].

Setting [2] is: medium Essential8, 2-mercaptoethanol 0, 10,000 cells/well.
[3] abbreviates: medium NutriStem, 2-mercaptoethanol 0.
[4] abbreviates: medium ReproFF2, 2-mercaptoethanol 102.4 μM (0.0008% by mass).
Where [5] appears, read: medium StemPro hESC SFM, 2-mercaptoethanol 100 μM (0.00078% by mass).
Where [6] appears, read: medium TeSR2, 2-mercaptoethanol 48.6 μM (0.00038% by mass).

B1: RCP-5: recombinant polypeptide for culture, SEQ ID NO: 19; vitronectin positions 1-55, 302-341, 342-373 (protein)
chain: MDQESCKGRCTEGFNVDKKCQCDELCSYYQSCCTDYTAECKPQVTRGDVFTMPEDEFWGRTSAGTRQPQFISRDWHGVPGQVDAAMAGRIYISGMAPRPSLAKKQRFRHRNRKGYRSQRGHSRGRNQN
modifications: Vitronectin-derived Recombinant Protein (RCP-5)
B1: the “cell growth properties with Essential 8 or NutriStem not containing 2-mercaptoethanol versus media containing it” value with human iPS cells ("Tic") was “better”. Also, the Cell growth rate in the data set on human iPS cells ("Tic") (setting [2]) was 84.4%; with human iPS cells ("Tic") (setting [3]) it was 123%; with human iPS cells ("Tic") (setting [4]), 70.3%; in the data set with human iPS cells ("Tic") (setting [5]), 20.1%; in the data set on human iPS cells ("Tic") (setting [6]), 54.4%. In addition, the “Residual rate of polypeptide (%)” value in data set [1] (Essential8) turned out to be 65.6%; in data set [1] (NutriStem), 62.5%; in data set [1] (ReproFF2) it was 42.1%; in data set [1] (Stempro hESC SFM) it was 35.3%; in data set [1] (TeSR2), 44.0%. The “residual rate of adsorbed polypeptide, medium not containing versus containing 2-mercaptoethanol” value in data set [1] is reported as “decreases further with the passage of time”. The “shape of iPS cells after 10 passages” value in the data set with iPS cells is “shape specific to undifferentiated cells”.

B2: RCP-11: recombinant polypeptide for culture, SEQ ID NO: 25; vitronectin positions 1-55, 269-277, 295-341, 342-373, C274S (protein)
chain: MDQESCKGRCTEGFNVDKKCQCDELCSYYQSCCTDYTAECKPQVTRGDVFTMPEDESQEESEGSEDIFELLFWGRTSAGTRQPQFISRDWHGVPGQVDAAMAGRIYISGMAPRPSLAKKQRFRHRNRKGYRSQRGHSRGRNQN
modifications: Vitronectin-derived Recombinant Protein (RCP-11)
notes: vitronectin positions 1-55, 269-277, 295-341, 342-373, C274S
In the case of B2, the “cell growth properties with Essential 8 or NutriStem not containing 2-mercaptoethanol versus media containing it” value with human iPS cells ("Tic") was “better”. Further, the Cell growth rate came to 100% in the data set on human iPS cells ("Tic") (setting [2]); 129.1% with human iPS cells ("Tic") (setting [3]); 84.7% in the data set with human iPS cells ("Tic") (setting [4]); 13.6% with human iPS cells ("Tic") (setting [5]); 71.8% in the data set on human iPS cells ("Tic") (setting [6]). Also, the “Residual rate of polypeptide (%)” value worked out at 71.8% in data set [1] (Essential8); 63.5% in data set [1] (NutriStem); 42.0% in data set [1] (ReproFF2); 29.4% in data set [1] (Stempro hESC SFM); 49.9% in data set [1] (TeSR2). Besides, the “residual rate of adsorbed polypeptide, medium not containing versus containing 2-mercaptoethanol” value in data set [1] is listed as “decreases further with the passage of time”. For the same molecule, the “expression of markers specific to undifferentiated cells” value with iPS cells (Essential 8, 10 passages, immunostaining, FIGS. 9A to 9F) is “expressed NANOG, OCT 3/4, SSEA-3, SSEA-4, Tra-1-60, and Tra-1-81”. The “shape of iPS cells after 10 passages” value in the data set with iPS cells was “shape specific to undifferentiated cells”.
